This note sets out measurements from patent publication US20250361326A1 (Hoffmann-La Roche, published 2025).

Assay [1] deals with T1, VEGF (UniProt P15692-9 27-147).
T1 construct: also called VEGF121
T1 sequence (looked up): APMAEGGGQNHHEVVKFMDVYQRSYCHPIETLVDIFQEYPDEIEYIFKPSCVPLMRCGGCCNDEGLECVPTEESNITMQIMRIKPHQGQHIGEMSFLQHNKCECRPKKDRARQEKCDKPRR
The assay can be described thus: bridging ELISA of exchange reaction mix, 1.3 µM input; VEGF coated, biocytinamid-Cy5 detection; highest value = 100%; binder has bio arm, no VEGF arm. A general note: ELISA stands for enzyme-linked immunosorbent assay.

Assay [2] deals with T1, VEGF. The assay can be described thus: bridging ELISA, VEGF coated, biocytinamid-Cy5 detection; binder has bio arm, no VEGF arm.
Assay [3] addresses T1, VEGF. The assay can be described thus: bridging ELISA of exchange reaction mix, 1.3 µM input; VEGF coated, digoxygenin-Cy5 detection; highest value = 100%; binder has neither arm.
Assay [4] deals with T1, VEGF. The assay can be described thus: bridging ELISA, VEGF coated, biocytinamid-Cy5 or digoxygenin-Cy5 detection; binder has bio and dig arms, no VEGF arm.
Assay [5] addresses T1, VEGF. Description: bridging ELISA of exchange reaction mix, 1.3 µM input; VEGF coated, digoxygenin-Cy5 detection; highest value = 100%; binder has dig arm, no VEGF arm.
Assay [6] concerns the target T1, VEGF. The assay can be described thus: bridging ELISA, VEGF coated, biocytinamid-Cy5 detection; binder has bio and PDGF arms, no VEGF arm.
Assay [7] has as its target T1, VEGF. Description: bridging ELISA, VEGF coated, digoxygenin-Cy5 detection; binder has dig arm, no VEGF arm.
Assay [8] deals with T1, VEGF. The assay can be described thus: bridging ELISA of exchange reaction mix, 1.3 µM input; VEGF coated, biocytinamid-Cy5 detection; highest value = 100%; binder has neither arm.
Assay [9] has as its target T1, VEGF. Description: bridging ELISA, VEGF coated, digoxygenin-Cy5 detection; binder has dig and PDGF arms, no VEGF arm.

B1: anti-bio/anti-fluos bispecific antibody (exchange reaction: bio MHCFcRP-knob-E357K row x fluos MHCFcRP-hole-K370E column) (bispecific antibody, human IgG1, kappa)
heavy 1: not shown
light 1: DIQMTQSPSSLSASVGDRVTITCRASGNIHNYLSWYQQKPGKVPKLLIYSAKTLADGVPSRFSGSGSGTDFTLTISSLQPEDVATYYCQHFWSSIYTFGQGTKLEIKRTVAAPSVFIFPPSDEQLKSGTASVVCLLNNFYPREAKVQWKVDNALQSGNSQESVTEQDSKDSTYSLSSTLTLSKADYEKHKVYACEVTHQGLSSPVTKSFNRGEC
heavy 2: not shown
light 2: DIVMTQTPLSLSVTPGQPASISCKSSQSLVHSNGNTYLRWYLQKPGQSPKVLIYKVSNRVSGVPDRFSGSGSGTDFTLKISRVEAEDVGVYYCSQSTHVPWTFGQGTKLEIKRTVAAPSVFIFPPSDEQLKSGTASVVCLLNNFYPREAKVQWKVDNALQSGNSQESVTEQDSKDSTYSLSSTLTLSKADYEKHKVYACEVTHQGLSSPVTKSFNRGEC
notes: Product of the 2/3-IgG exchange reaction, tested as reaction mix; human IgG1 knob-into-hole format; also called bio/fluos bsAb
With B1, the values for the relative signal intensity in assay [1] and in assay [3] were 9% and 7.2%, respectively. Besides, the binding result in [2] is reported as “no binding (tested: 1.3 µM input molecule concentration)”.

B2: anti-bio/anti-dig bispecific antibody (exchange reaction: bio MHCFcRP-knob-E357K row x dig MHCFcRP-hole-K370E column) (bispecific antibody, human IgG1, not shown: small tags and cut ends)
heavy 1: not shown
light 1: DIQMTQSPSSLSASVGDRVTITCRASGNIHNYLSWYQQKPGKVPKLLIYSAKTLADGVPSRFSGSGSGTDFTLTISSLQPEDVATYYCQHFWSSIYTFGQGTKLEIKRTVAAPSVFIFPPSDEQLKSGTASVVCLLNNFYPREAKVQWKVDNALQSGNSQESVTEQDSKDSTYSLSSTLTLSKADYEKHKVYACEVTHQGLSSPVTKSFNRGEC
heavy 2: QVQLVESGGGLVKPGGSLRLSCAASGFTFSDYAMSWIRQAPGKGLEWVSSINIGATYIYYADSVKGRFTISRDNAKNSLYLQMNSLRAEDTAVYYCARPGSPYEYDKAYYSMAYWGQGTTVTVSSASTKGPSVFPLAPSSKSTSGGTAALGCLVKDYFPEPVTVSWNSGALTSGVHTFPAVLQSSGLYSLSSVVTVPSSSLGTQTYICNVNHKPSNTKVDKKVEPKSC
light 2: not shown
notes: Product of the 2/3-IgG exchange reaction, tested as reaction mix; human IgG1 knob-into-hole format; also called bio/dig bsAb
As for B2, the binding result in assay [4] is given as “no binding (tested: 1.3 µM input molecule concentration)”. Further, the relative signal intensity in assay [1] turned out to be 9.3%; in [5], 6.2%.

B3: anti-dig/anti-bio bispecific antibody (exchange reaction: dig MHCFcRP-knob-E357K row x bio MHCFcRP-hole-K370E column) (bispecific antibody, human IgG1, not shown: small tags and cut ends)
heavy 1: QVQLVESGGGLVKPGGSLRLSCAASGFTFSDYAMSWIRQAPGKGLEWVSSINIGATYIYYADSVKGRFTISRDNAKNSLYLQMNSLRAEDTAVYYCARPGSPYEYDKAYYSMAYWGQGTTVTVSSASTKGPSVFPLAPSSKSTSGGTAALGCLVKDYFPEPVTVSWNSGALTSGVHTFPAVLQSSGLYSLSSVVTVPSSSLGTQTYICNVNHKPSNTKVDKKVEPKSC
light 1: not shown
heavy 2: not shown
light 2: DIQMTQSPSSLSASVGDRVTITCRASGNIHNYLSWYQQKPGKVPKLLIYSAKTLADGVPSRFSGSGSGTDFTLTISSLQPEDVATYYCQHFWSSIYTFGQGTKLEIKRTVAAPSVFIFPPSDEQLKSGTASVVCLLNNFYPREAKVQWKVDNALQSGNSQESVTEQDSKDSTYSLSSTLTLSKADYEKHKVYACEVTHQGLSSPVTKSFNRGEC
notes: Product of the 2/3-IgG exchange reaction, tested as reaction mix; human IgG1 knob-into-hole format; also called dig/bio bsAb
On to B3, for which the binding result in assay [4] is reported as “no binding (tested: 1.3 µM input molecule concentration)”. The figures for the relative signal intensity in assay [1] and in assay [5] were 9% and 6.2%, respectively.

B4: anti-fluos/anti-bio bispecific antibody (exchange reaction: fluos MHCFcRP-knob-E357K row x bio MHCFcRP-hole-K370E column) (bispecific antibody, human IgG1, kappa)
heavy 1: not shown
light 1: DIVMTQTPLSLSVTPGQPASISCKSSQSLVHSNGNTYLRWYLQKPGQSPKVLIYKVSNRVSGVPDRFSGSGSGTDFTLKISRVEAEDVGVYYCSQSTHVPWTFGQGTKLEIKRTVAAPSVFIFPPSDEQLKSGTASVVCLLNNFYPREAKVQWKVDNALQSGNSQESVTEQDSKDSTYSLSSTLTLSKADYEKHKVYACEVTHQGLSSPVTKSFNRGEC
heavy 2: not shown
light 2: DIQMTQSPSSLSASVGDRVTITCRASGNIHNYLSWYQQKPGKVPKLLIYSAKTLADGVPSRFSGSGSGTDFTLTISSLQPEDVATYYCQHFWSSIYTFGQGTKLEIKRTVAAPSVFIFPPSDEQLKSGTASVVCLLNNFYPREAKVQWKVDNALQSGNSQESVTEQDSKDSTYSLSSTLTLSKADYEKHKVYACEVTHQGLSSPVTKSFNRGEC
notes: Product of the 2/3-IgG exchange reaction, tested as reaction mix; human IgG1 knob-into-hole format; also called fluos/bio bsAb
On to B4, for which the relative signal intensity in assay [1] turned out to be 10.2%; in assay [3] it was 6.5%. Besides, the binding result in assay [2] is recorded as “no binding (tested: 1.3 µM input molecule concentration)”.

B5: anti-bio/anti-PDGF bispecific antibody (exchange reaction: bio MHCFcRP-knob-E357K row x PDGF MHCFcRP-hole-K370E column) (bispecific antibody, human IgG1, not shown: small tags and cut ends)
heavy 1: not shown
light 1: DIQMTQSPSSLSASVGDRVTITCRASGNIHNYLSWYQQKPGKVPKLLIYSAKTLADGVPSRFSGSGSGTDFTLTISSLQPEDVATYYCQHFWSSIYTFGQGTKLEIKRTVAAPSVFIFPPSDEQLKSGTASVVCLLNNFYPREAKVQWKVDNALQSGNSQESVTEQDSKDSTYSLSSTLTLSKADYEKHKVYACEVTHQGLSSPVTKSFNRGEC
heavy 2: EVQLVESGGGLVQPGGSLRLSCAASGFTFSSYWMSWVRQAPEKGLEWVSTISDGGGLTYYADSVKGRFTISRDNAKNSLYLQMNSLRAEDTAVYYCAESGGYTDWLFGYWGQGTLVTVSSASTKGPSVFPLAPSSKSTSGGTAALGCLVKDYFPEPVTVSWNSGALTSGVHTFPAVLQSSGLYSLSSVVTVPSSSLGTQTYICNVNHKPSNTKVDKKVEPKSC
light 2: not shown
notes: Product of the 2/3-IgG exchange reaction, tested as reaction mix; human IgG1 knob-into-hole format; also called bio/PDGF bsAb
For B5, the binding result in assay [6] is “no binding (tested: 1.3 µM input molecule concentration)”. For the same molecule, the relative signal intensity in assay [1] was 10.1%; in assay [3], 6.1%.

B6: anti-PDGF/anti-bio bispecific antibody (exchange reaction: PDGF MHCFcRP-knob-E357K row x bio MHCFcRP-hole-K370E column) (bispecific antibody, human IgG1, not shown: small tags and cut ends)
heavy 1: EVQLVESGGGLVQPGGSLRLSCAASGFTFSSYWMSWVRQAPEKGLEWVSTISDGGGLTYYADSVKGRFTISRDNAKNSLYLQMNSLRAEDTAVYYCAESGGYTDWLFGYWGQGTLVTVSSASTKGPSVFPLAPSSKSTSGGTAALGCLVKDYFPEPVTVSWNSGALTSGVHTFPAVLQSSGLYSLSSVVTVPSSSLGTQTYICNVNHKPSNTKVDKKVEPKSC
light 1: not shown
heavy 2: not shown
light 2: DIQMTQSPSSLSASVGDRVTITCRASGNIHNYLSWYQQKPGKVPKLLIYSAKTLADGVPSRFSGSGSGTDFTLTISSLQPEDVATYYCQHFWSSIYTFGQGTKLEIKRTVAAPSVFIFPPSDEQLKSGTASVVCLLNNFYPREAKVQWKVDNALQSGNSQESVTEQDSKDSTYSLSSTLTLSKADYEKHKVYACEVTHQGLSSPVTKSFNRGEC
notes: Product of the 2/3-IgG exchange reaction, tested as reaction mix; human IgG1 knob-into-hole format; also called PDGF/bio bsAb
With B6, in [6], the binding result was “no binding (tested: 1.3 µM input molecule concentration)”. The relative signal intensity in [1] is 10.5%; in assay [3], 6%.

B7: anti-fluos/anti-dig bispecific antibody (exchange reaction: fluos MHCFcRP-knob-E357K row x dig MHCFcRP-hole-K370E column) (bispecific antibody, human IgG1, not shown: small tags and cut ends)
heavy 1: not shown
light 1: DIVMTQTPLSLSVTPGQPASISCKSSQSLVHSNGNTYLRWYLQKPGQSPKVLIYKVSNRVSGVPDRFSGSGSGTDFTLKISRVEAEDVGVYYCSQSTHVPWTFGQGTKLEIKRTVAAPSVFIFPPSDEQLKSGTASVVCLLNNFYPREAKVQWKVDNALQSGNSQESVTEQDSKDSTYSLSSTLTLSKADYEKHKVYACEVTHQGLSSPVTKSFNRGEC
heavy 2: QVQLVESGGGLVKPGGSLRLSCAASGFTFSDYAMSWIRQAPGKGLEWVSSINIGATYIYYADSVKGRFTISRDNAKNSLYLQMNSLRAEDTAVYYCARPGSPYEYDKAYYSMAYWGQGTTVTVSSASTKGPSVFPLAPSSKSTSGGTAALGCLVKDYFPEPVTVSWNSGALTSGVHTFPAVLQSSGLYSLSSVVTVPSSSLGTQTYICNVNHKPSNTKVDKKVEPKSC
light 2: not shown
notes: Product of the 2/3-IgG exchange reaction, tested as reaction mix; human IgG1 knob-into-hole format; also called fluos/dig bsAb
For the molecule B7, the relative signal intensity in assay [5] is 6.3%; in assay [8] it was 9.4%. In assay [7], the binding result is given as “no binding (tested: 1.3 µM input molecule concentration)”.

B8: anti-dig/anti-PDGF bispecific antibody (exchange reaction: dig MHCFcRP-knob-E357K row x PDGF MHCFcRP-hole-K370E column) (bispecific antibody, human IgG1, not shown: small tags and cut ends)
heavy 1: QVQLVESGGGLVKPGGSLRLSCAASGFTFSDYAMSWIRQAPGKGLEWVSSINIGATYIYYADSVKGRFTISRDNAKNSLYLQMNSLRAEDTAVYYCARPGSPYEYDKAYYSMAYWGQGTTVTVSSASTKGPSVFPLAPSSKSTSGGTAALGCLVKDYFPEPVTVSWNSGALTSGVHTFPAVLQSSGLYSLSSVVTVPSSSLGTQTYICNVNHKPSNTKVDKKVEPKSC
light 1: not shown
heavy 2: EVQLVESGGGLVQPGGSLRLSCAASGFTFSSYWMSWVRQAPEKGLEWVSTISDGGGLTYYADSVKGRFTISRDNAKNSLYLQMNSLRAEDTAVYYCAESGGYTDWLFGYWGQGTLVTVSSASTKGPSVFPLAPSSKSTSGGTAALGCLVKDYFPEPVTVSWNSGALTSGVHTFPAVLQSSGLYSLSSVVTVPSSSLGTQTYICNVNHKPSNTKVDKKVEPKSC
light 2: not shown
notes: Product of the 2/3-IgG exchange reaction, tested as reaction mix; human IgG1 knob-into-hole format; also called dig/PDGF bsAb
As for B8, the relative signal intensity came to 7% in assay [5] and 9.9% in assay [8]. The binding result in assay [9] was “no binding (tested: 1.3 µM input molecule concentration)”.

B9: anti-PDGF/anti-dig bispecific antibody (exchange reaction: PDGF MHCFcRP-knob-E357K row x dig MHCFcRP-hole-K370E column) (bispecific antibody, human IgG1, not shown: small tags and cut ends)
heavy 1: EVQLVESGGGLVQPGGSLRLSCAASGFTFSSYWMSWVRQAPEKGLEWVSTISDGGGLTYYADSVKGRFTISRDNAKNSLYLQMNSLRAEDTAVYYCAESGGYTDWLFGYWGQGTLVTVSSASTKGPSVFPLAPSSKSTSGGTAALGCLVKDYFPEPVTVSWNSGALTSGVHTFPAVLQSSGLYSLSSVVTVPSSSLGTQTYICNVNHKPSNTKVDKKVEPKSC
light 1: not shown
heavy 2: QVQLVESGGGLVKPGGSLRLSCAASGFTFSDYAMSWIRQAPGKGLEWVSSINIGATYIYYADSVKGRFTISRDNAKNSLYLQMNSLRAEDTAVYYCARPGSPYEYDKAYYSMAYWGQGTTVTVSSASTKGPSVFPLAPSSKSTSGGTAALGCLVKDYFPEPVTVSWNSGALTSGVHTFPAVLQSSGLYSLSSVVTVPSSSLGTQTYICNVNHKPSNTKVDKKVEPKSC
light 2: not shown
notes: Product of the 2/3-IgG exchange reaction, tested as reaction mix; human IgG1 knob-into-hole format; also called PDGF/dig bsAb
With B9, the relative signal intensity in [5] was 5.9%; in assay [8], 9.2%. For the same molecule, the binding result in assay [9] is “no binding (tested: 1.3 µM input molecule concentration)”.
